Consider five sequences from article PMC8407328.

Data set [1] has as its target T1, His-RcrR (Streptococcus mutans UA159) (UniProt Q8DUK6).
T1 sequence: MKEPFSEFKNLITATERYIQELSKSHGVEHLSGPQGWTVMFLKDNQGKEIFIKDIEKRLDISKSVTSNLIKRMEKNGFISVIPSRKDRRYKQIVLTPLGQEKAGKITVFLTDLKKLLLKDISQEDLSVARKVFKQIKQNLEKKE
The data set is described as follows: EMSA. In general terms: In EMSA bound probe runs differently from free probe, usually more slowly.

Data set [2] deals with T1, His-RcrR (Streptococcus mutans UA159). The data set can be described thus: DNase I footprinting.

As to “AAAAACTCCTTTAAATTTCGTTAAGGATAATTTTGAGCAGTAAAAAAGCTCCTAATATAAAAATAGGAGCTGCCAAATAATAGGCTGGTTTTTTTTATAGATGGCTTCTCCCAAACATCCTTATGTAATTCTTCAATATGGTAACATGAAAATAGGGAAAAAGCAAATTTGTTCAATAAAGCCA (double strand) [P1 (rcrR promoter fragment 1)]”, the binding entry in data set [1] is recorded as “no binding”. The same measure, in the same setting: for “AGCGGTTTGAGCACTTTCACTACAGCGAAAAAGCAATCGTTTAAAGTGACTTTATCACCATCAAGCTATAAAAAATTAAATTAGTTCTCATAGAAACTTTTTTCTTGACAATAGTTTAAGGAATCATTATAATAGTTTTCATGAGAACTATTATAATATTCTCATAAAAAGTGAGGTGTTTTT (double strand) [P3 (rcrR promoter fragment 3)]” the value was “binds”. Regarding “AGCGGTTTGAGCACTTTCACTACAGCGAAAAAGCAATCGTTTAAAGTGACTTTATCACCATCAAGCTATAAAAAATTAAATTAGTTCTCATAGAAACTTTTTTCTTGACAATAGTTTAAGGAATCATTATAATAGTTTTCATGAGAACTATTATAATATTCTCATAAAAAGTGAGGTGTTTTT (double strand) [P3 FAM-labeled]”, the binding result in data set [2] is reported as “binds”.

Regarding “GTCTTAGAAAGTAGTCAGAAGGATTAGACTTGTTTGGAAATGAATTATTCTTTTTATGGTTGTGGCTTTTCTTAAGTAATGAAGGCGAAAAGTGAATAGTCCAGCGGACTATTTTAGAAATTCAAGGGAGTTCCATTCTTTTTGGCGCCCCTAGGTCTTACCAACACCTCATGATAGAACTATA (double strand) [P2 (rcrR promoter fragment 2)]”, in data set [1], the binding entry is listed as “no binding”.

On to “TAAATTTTTCCTAGGTTAACCTAGTCCTCCTTTAATATGATAACAGTACGTTTACTTTTTCATTGTAAACGATTACAAATTTGTTGGCAAGTTGTCCATAGGAAAAAAGCGCAATTTTTGTTAAAATAAAGTCAGTTGTATGCATTTTTTTAGACAAATTAGATTGAATTGCTTA (double strand) [PSMU_2038 (trehalose PTS promoter)]”, for which the binding result in data set [1] was “binds”.
